According to patent publication US20100022402A1, “Methods and Compositions for the In Vitro High-Throughput Detection of Protein/Protein Interactions” (priority 2004, published 2010):

Key:
[1] = biological target: Lambda phage displaying SS1 scFv (DcSS1DL1), gpD-scFv-c-myc fusion protein (bacteriophage lambda) (UniProt P03712); assay: phage ELISA on anti-c-myc-coated plates, reference DcDL1
[2] = biological target: DcDL1 lambda phage displaying gpD-c-myc fusion protein (bacteriophage lambda) (UniProt P03712); assay: bio-panning in 9E10-coated wells, reference DL1 phage
[3] = biological target: DcDL1 lambda phage displaying gpD-c-myc fusion protein (bacteriophage lambda) (UniProt P03712); assay: bio-panning of DcDL1 SCO and DCO phage in 9E10-coated wells
[4] = biological target: λD-Ubiquitin display phage (gpD fused to Ubiquitin) (bacteriophage lambda) (UniProt P03712); assay: apparent KD from titration of λD-Cue:λD-Ubiquitin co-infection by free protein
[5] = biological target: λD-CUE display phage (gpD fused to the CUE domain of Vps9p) (bacteriophage lambda) (UniProt P03712); assay: competition: free protein titrates λD-CUE:λD-Ubiquitin co-infection (MOI 0.04), loss of double resistant multilysogens
[6] = biological target: λD-CUE display phage (gpD fused to the CUE domain of Vps9p) (bacteriophage lambda) (UniProt P03712); assay: apparent KD from titration of λD-Cue:λD-Ubiquitin co-infection by free protein
[7] = biological target: λD-Ubiquitin display phage (gpD fused to Ubiquitin) (bacteriophage lambda) (UniProt P03712); assay: cell-based or functional assay

free wild type CUE protein (wtCUE, 50 amino acids), sequence (P54787 402-451 limits assumed): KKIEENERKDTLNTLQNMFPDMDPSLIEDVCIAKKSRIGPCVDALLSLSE

In the case of Anti-c-myc mAb, 9E10 (antibody), the fold less binding than DcDL1 [1] is reported as 30 times less, the fold recovery over DL1 phage [2] is reported as > 200 fold and the recovery of phages (percent of phages added) [3] is reported as 2%.

For “free wild type CUE protein (wtCUE, 50 amino acids) (from UniProt P54787 402-451)”, the Kd [4] was 2 nM.

With “free wild type Ubiquitin protein (wtUbiquitin)” the IC50 [5] was 3 nM and the Kd [6] was 20 nM.

Substance “λD-CUE display phage (gpD fused to the CUE domain of Vps9p) (from UniProt P03712 1-110; P54787 402-451)” has a Cml^r/Kan^r double resistant lysogens at an MOI of 0.008 (8×10^5 phages infecting 1×10^8 cells) [7] of 150 lysogens, an MOI at which double resistant multilysogens begin to contribute to the stable lysogen population [7] of 0.0001 MOI and an MOI at which formation of double resistant multilysogens begins [7] of 0.03 MOI. The maximum saturation point of double resistant multilysogens (% of the available cells) [7] was 25.
